Tested on: Escherichia coli TOP10
Assay: shrunken log2 fold change of peptide-encoding DNA abundance (4.5 h post-induction vs induction); higher = less antimicrobial activity (less host growth inhibition)
Conditions: time post-induction: 4.5 h; library: site-saturation at positions 5, 18, 19, 20
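Also: peptides expressed intracellularly from a pBAD plasmid library in pooled LB shake-flask culture, induced with 0.3% L-arabinose, DNA abundance read by NGS, three biological replicates, DESeq2 with apeglm shrinkage.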

Sequence | shrunken log2 fold change
RRIRHRPPRLPRPRPRPMAFPRP | 0.166
RRIRHRPPRLPRPRPRPMANPRP | -0.0536
RRIRHRPPRLPRPRPRPMGMPRP | -0.254
RRIRHRPPRLPRPRPRPMHSPRP | 0.0758
RRIRHRPPRLPRPRPRPMHWPRP | -0.134
RRIRHRPPRLPRPRPRPMIAPRP | -0.0185
RRIRHRPPRLPRPRPRPMKHPRP | -0.0367
RRIRHRPPRLPRPRPRPMKMPRP | 0.043
RRIRHRPPRLPRPRPRPMLCPRP | -0.0124
RRIRHRPPRLPRPRPRPMNVPRP | -0.0594
RRIRHRPPRLPRPRPRPMPAPRP | 0.337
RRIRHRPPRLPRPRPRPMPCPRP | -0.105
RRIRHRPPRLPRPRPRPMQIPRP | 0.093
RRIRHRPPRLPRPRPRPMQSPRP | -0.215
RRIRHRPPRLPRPRPRPMSKPRP | -0.203
RRIRHRPPRLPRPRPRPMSPPRP | 0.0565
RRIRHRPPRLPRPRPRPMSTPRP | -0.12
RRIRHRPPRLPRPRPRPMTKPRP | 0.0576
RRIRHRPPRLPRPRPRPMVTPRP | -1.08
RRIRHRPPRLPRPRPRPMVYPRP | -0.0125
RRIRHRPPRLPRPRPRPMWEPRP | -0.0441
RRIRHRPPRLPRPRPRPMYDPRP | 0.0149

Sequence | shrunken log2 fold change
RRIRHRPPRLPRPRPRPMYEPRP | -0.0116
RRIRHRPPRLPRPRPRPMYSPRP | -0.263
RRIRHRPPRLPRPRPRPNAAPRP | 0.299
RRIRHRPPRLPRPRPRPNAKPRP | -0.117
RRIRHRPPRLPRPRPRPNCAPRP | 0.0721
RRIRHRPPRLPRPRPRPNCGPRP | 0.00696
RRIRHRPPRLPRPRPRPNCMPRP | -0.0153
RRIRHRPPRLPRPRPRPNDNPRP | -1.03
RRIRHRPPRLPRPRPRPNDRPRP | -0.104
RRIRHRPPRLPRPRPRPNEFPRP | -0.00664
RRIRHRPPRLPRPRPRPNEKPRP | -0.0239
RRIRHRPPRLPRPRPRPNFCPRP | -0.0463
RRIRHRPPRLPRPRPRPNFNPRP | -0.509
RRIRHRPPRLPRPRPRPNFPPRP | -0.189
RRIRHRPPRLPRPRPRPNHDPRP | -0.719
RRIRHRPPRLPRPRPRPNIMPRP | -0.596
RRIRHRPPRLPRPRPRPNISPRP | -0.319
RRIRHRPPRLPRPRPRPNKPPRP | -0.0637
RRIRHRPPRLPRPRPRPNLMPRP | 0.0972
RRIRHRPPRLPRPRPRPNLSPRP | 0.28
RRIRHRPPRLPRPRPRPNMRPRP | 0.0719
RRIRHRPPRLPRPRPRPNNRPRP | -0.329

Sequence | shrunken log2 fold change
RRIRHRPPRLPRPRPRPNPEPRP | -0.00699
RRIRHRPPRLPRPRPRPNPYPRP | -0.161
RRIRHRPPRLPRPRPRPNRCPRP | -0.259
RRIRHRPPRLPRPRPRPNRGPRP | -0.123
RRIRHRPPRLPRPRPRPNRIPRP | -0.46
RRIRHRPPRLPRPRPRPNRNPRP | -1.01
RRIRHRPPRLPRPRPRPNSNPRP | -1.16
RRIRHRPPRLPRPRPRPPAIPRP | 0.0959
RRIRHRPPRLPRPRPRPPANPRP | 0.478
RRIRHRPPRLPRPRPRPPCSPRP | -0.217
RRIRHRPPRLPRPRPRPPDGPRP | 0.178
RRIRHRPPRLPRPRPRPPDKPRP | -0.112
RRIRHRPPRLPRPRPRPPDLPRP | 0.0765
RRIRHRPPRLPRPRPRPPDMPRP | 0.0267
RRIRHRPPRLPRPRPRPPELPRP | 0.469
RRIRHRPPRLPRPRPRPPFIPRP | -0.483
RRIRHRPPRLPRPRPRPPFRPRP | 0.141
RRIRHRPPRLPRPRPRPPGIPRP | 0.142
RRIRHRPPRLPRPRPRPPHCPRP | -0.203
RRIRHRPPRLPRPRPRPPHMPRP | -0.115
RRIRHRPPRLPRPRPRPPISPRP | -0.378
RRIRHRPPRLPRPRPRPPIVPRP | -0.252

Sequence | shrunken log2 fold change
RRIRHRPPRLPRPRPRPPKEPRP | 0.121
RRIRHRPPRLPRPRPRPPKKPRP | -0.0115
RRIRHRPPRLPRPRPRPPLYPRP | -0.151
RRIRHRPPRLPRPRPRPPNEPRP | 0.159
RRIRHRPPRLPRPRPRPPNMPRP | -0.0135
RRIRHRPPRLPRPRPRPPQRPRP | 0.248
RRIRHRPPRLPRPRPRPPRDPRP | 0.346
RRIRHRPPRLPRPRPRPPSHPRP | -0.139
RRIRHRPPRLPRPRPRPPVCPRP | -0.0372
RRIRHRPPRLPRPRPRPPVKPRP | 0.0106
RRIRHRPPRLPRPRPRPPWNPRP | -0.0664
RRIRHRPPRLPRPRPRPPWYPRP | -0.232
RRIRHRPPRLPRPRPRPPYAPRP | -0.00375
RRIRHRPPRLPRPRPRPQAMPRP | -0.00822
RRIRHRPPRLPRPRPRPQATPRP | 0.00115
RRIRHRPPRLPRPRPRPQAWPRP | 0.00326
RRIRHRPPRLPRPRPRPQAYPRP | -0.451
RRIRHRPPRLPRPRPRPQDIPRP | -0.343
RRIRHRPPRLPRPRPRPQDLPRP | -0.0414
RRIRHRPPRLPRPRPRPQDTPRP | -0.374
RRIRHRPPRLPRPRPRPQEDPRP | -0.106
RRIRHRPPRLPRPRPRPQEMPRP | -0.0755

Sequence | shrunken log2 fold change
RRIRHRPPRLPRPRPRPQFVPRP | -0.163
RRIRHRPPRLPRPRPRPQGAPRP | -0.171
RRIRHRPPRLPRPRPRPQGRPRP | 0.027
RRIRHRPPRLPRPRPRPQGWPRP | 0.0705
RRIRHRPPRLPRPRPRPQHFPRP | 0.0728
RRIRHRPPRLPRPRPRPQHVPRP | -0.048
RRIRHRPPRLPRPRPRPQIPPRP | 0.0645
RRIRHRPPRLPRPRPRPQLIPRP | 0.00748
RRIRHRPPRLPRPRPRPQLMPRP | -0.351
RRIRHRPPRLPRPRPRPQLWPRP | 0.0534
RRIRHRPPRLPRPRPRPQMFPRP | -0.0824
RRIRHRPPRLPRPRPRPQMHPRP | -0.00258
RRIRHRPPRLPRPRPRPQMRPRP | 0.209
RRIRHRPPRLPRPRPRPQNKPRP | -0.654
RRIRHRPPRLPRPRPRPQPEPRP | -0.0374
RRIRHRPPRLPRPRPRPQRWPRP | 0.00359
RRIRHRPPRLPRPRPRPQSFPRP | 0.0133
RRIRHRPPRLPRPRPRPQSIPRP | -0.0188
RRIRHRPPRLPRPRPRPQTDPRP | -1.36
RRIRHRPPRLPRPRPRPQTNPRP | -0.633
RRIRHRPPRLPRPRPRPQTVPRP | -0.495

From the supplement of paper PMC9112550, “Optimization of the antimicrobial peptide Bac7 by deep mutational scanning” (BMC Biology, 2022)
